Experimental data: the supplement of paper PMC7125110
± gives the standard error. For some assays here: Fewer inactive variants are shown than the library holds.

B1: glmS ribozyme (parent)
chain: AUAAAAGCGCCAGAACUACAGAAAUGUAGUUGACGAGGAGGAGGUUUAUCGAAUUUUCGGCGGAUGCCUCCAAA

Columns and labels:
Conditions in all cases: with glucosamine-6-phosphate
[1] = variants of: B1; assay: KM; higher = weaker cofactor use; RNA array
Outline: (§1)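 Tiles bearing barcoded ribozyme variants, transcribed in situ by E. coli RNA polymerase on sequenced MiSeq chips, were imaged over ~14 h at 37 °C using a hybridised Cy3 probe. Glucosamine-6-phosphate was supplied at 40 μM to 10 mM in HEPES/KCl/Mg(OAc)2 buffer. kobs came from one- or two-exponential decay fits to normalised per-tile medians, and weighted Michaelis–Menten fits then provided kcat and KM.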

[2] = variants of: B1; assay: self-cleavage kobs at 40 uM GlcN6P; higher = faster cleavage; RNA array
Outline: as §1

[3] = variants of: B1; assay: self-cleavage kobs at 160 uM GlcN6P; higher = faster cleavage; RNA array
Outline: as §1

[4] = variants of: B1; assay: self-cleavage kobs at 640 uM GlcN6P; higher = faster cleavage; RNA array
Outline: as §1

[5] = variants of: B1; assay: self-cleavage kobs at 2500 uM GlcN6P; higher = faster cleavage; RNA array
Outline: as §1

[6] = variants of: B1; assay: self-cleavage kobs at 10000 uM GlcN6P; higher = faster cleavage; RNA array
Outline: as §1

[7] = variants of: B1; assay: kcat; higher = faster cleavage; RNA array
Outline: as §1

| Variant | KM [1] | self-cleavage kobs at 40 uM GlcN6P [2] | self-cleavage kobs at 160 uM GlcN6P [3] | self-cleavage kobs at 640 uM GlcN6P [4] | self-cleavage kobs at 2500 uM GlcN6P [5] | self-cleavage kobs at 10000 uM GlcN6P [6] | kcat [7] |
| --- | --- | --- | --- | --- | --- | --- | --- |
| U54G U56A G63U | 1560 ± 740 µM | – | – | – | – | – | – |
| A52C U65G | 197 ± 67 µM | – | – | – | – | – | – |
| A6C G62C | – | < 1e-05 s⁻¹ | < 1e-05 s⁻¹ | < 1e-05 s⁻¹ | < 1e-05 s⁻¹ | < 1e-05 s⁻¹ | – |
| G37U U54C | 2230 ± 960 µM | – | – | – | – | – | – |
| A6G A12C C71A | – | < 1e-05 s⁻¹ | – | – | – | – | – |
| G63A C71A | – | – | – | – | – | – | < 1e-05 s⁻¹ |
| G66C C67U | 1800 ± 520 µM | – | – | – | – | 2.37e-05 ± 7.3e-06 s⁻¹ | 2.82e-05 ± 1.9e-06 s⁻¹ |
| C68G C70U | – | – | – | 3.32e-05 ± 1.3e-05 s⁻¹ | – | – | 2.04e-05 ± 6.3e-06 s⁻¹ |
| A6G C71G | – | < 1e-05 s⁻¹ | < 1e-05 s⁻¹ | < 1e-05 s⁻¹ | < 1e-05 s⁻¹ | – | – |
| A6G G7U | – | < 1e-05 s⁻¹ | < 1e-05 s⁻¹ | – | < 1e-05 s⁻¹ | < 1e-05 s⁻¹ | – |
| G62A G63U | 359 ± 79 µM | – | – | – | – | – | – |
| A6G A52G A53G C67G | – | 6.36e-05 ± 3.1e-05 s⁻¹ | – | 0.00028 ± 0.00011 s⁻¹ | – | – | – |
| A6G C10A G29U | – | < 1e-05 s⁻¹ | – | – | – | – | – |
| A64C C67U | 657 ± 190 µM | – | – | – | – | – | – |
| C68G U69A | – | – | – | – | – | – | 1.57e-05 ± 5.7e-06 s⁻¹ |
| C68G U69G | – | – | – | – | 2.65e-05 ± 1.2e-05 s⁻¹ | – | 2.17e-05 ± 5e-06 s⁻¹ |
| U65G C67G | 1630 ± 120 µM | 3.46e-05 ± 6.7e-06 s⁻¹ | 0.00012 ± 1.6e-05 s⁻¹ | 0.000419 ± 4.6e-05 s⁻¹ | 0.00082 ± 0.00011 s⁻¹ | 0.00122 ± 0.00014 s⁻¹ | 0.00141 ± 6.7e-05 s⁻¹ |
| U65G C67U | 3590 ± 950 µM | 3.92e-05 ± 7.9e-06 s⁻¹ | 0.000142 ± 1.8e-05 s⁻¹ | 0.000459 ± 5.7e-05 s⁻¹ | 0.00101 ± 0.00014 s⁻¹ | 0.00248 ± 0.00025 s⁻¹ | 0.00306 ± 0.00057 s⁻¹ |
| C68U C70U | – | – | – | – | 3.68e-05 ± 7.6e-06 s⁻¹ | 1.88e-05 ± 3.8e-06 s⁻¹ | 2.24e-05 ± 7.8e-06 s⁻¹ |
| A6G C10U G43C | – | < 1e-05 s⁻¹ | – | < 1e-05 s⁻¹ | – | – | – |
| A12C A36U | 56.2 ± 26 µM | – | – | – | – | – | – |
| A6G A15U G59A | – | < 1e-05 s⁻¹ | – | – | < 1e-05 s⁻¹ | < 1e-05 s⁻¹ | – |
| A15U U46G G51U | 56.5 ± 15 µM | – | – | – | – | – | – |
| A6C A33U C58G G60U C71A | – | < 1e-05 s⁻¹ | – | – | – | – | – |
| A6C A36G A52G | – | < 1e-05 s⁻¹ | – | – | < 1e-05 s⁻¹ | < 1e-05 s⁻¹ | – |
| A6G A33C | – | < 1e-05 s⁻¹ | < 1e-05 s⁻¹ | < 1e-05 s⁻¹ | < 1e-05 s⁻¹ | < 1e-05 s⁻¹ | – |
| A6G A33U | – | < 1e-05 s⁻¹ | < 1e-05 s⁻¹ | < 1e-05 s⁻¹ | < 1e-05 s⁻¹ | – | – |
